Assay results from publication PMC3828344.

What was measured:
[1] = molecular target: T1, murine norovirus particle (capsid of 180 VP1) (Murine norovirus 1 (MNV-1, clone CW-1)) (UniProt B7XA03); assay: filter binding (polycarbonate)
T1 sequence: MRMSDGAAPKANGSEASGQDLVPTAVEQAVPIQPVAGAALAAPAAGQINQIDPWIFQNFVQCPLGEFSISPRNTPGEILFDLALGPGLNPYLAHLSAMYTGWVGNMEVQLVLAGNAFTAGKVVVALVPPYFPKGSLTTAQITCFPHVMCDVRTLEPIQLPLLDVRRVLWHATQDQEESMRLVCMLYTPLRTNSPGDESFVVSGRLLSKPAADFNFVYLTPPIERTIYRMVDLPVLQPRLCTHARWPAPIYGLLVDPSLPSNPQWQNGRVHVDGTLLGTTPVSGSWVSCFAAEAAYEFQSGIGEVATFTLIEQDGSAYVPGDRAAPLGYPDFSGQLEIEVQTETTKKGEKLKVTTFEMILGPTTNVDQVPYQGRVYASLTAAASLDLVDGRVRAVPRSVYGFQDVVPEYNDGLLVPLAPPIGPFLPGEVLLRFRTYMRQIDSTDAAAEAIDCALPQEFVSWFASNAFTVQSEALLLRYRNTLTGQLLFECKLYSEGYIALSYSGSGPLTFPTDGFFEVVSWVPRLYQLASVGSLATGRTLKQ

[2] = molecular target: T1, murine norovirus particle (capsid of 180 VP1) (Murine norovirus 1 (MNV-1, clone CW-1)); assay: electrochemical aptasensor (SWV); conditions: thiol (end not stated in material); GSB: 50 mM NaCl, 20 mM Tris-HCl pH 7.4, 3 mM MgCl2, 5 mM KCl, room temperature (anisotropy ~1 h; filter 24 h); aptasensor: Dulbecco's PBS, 25 C, 1 h

“GCTAGCGAATTCCGTACGAAGGGCGAATTCCACATTGGGCTGCAGCCCGGGGGATCC [AG3]” was tested, and the K half [1] was 0.1 pM.

In the case of “GCTAGCGAATTCCGTACGAAGGGCGAATTCCACATTGGGCTGCAGCCCGGGGGATCC [thiolated AG3 (aptasensor)]”, the binding signal (% of current decrease (110.6 to 34.6 uA)) [2] is reported as 100.
